Target: biotinylated Apaf-1 CARD-LZ-Avi (UniProt O14727 1-137, biotin on the AviTag (BirA))
Assay: SPR

Chain of biotinylated Apaf-1 CARD-LZ-Avi (O14727 other isoform, or with tags, fused parts or gaps): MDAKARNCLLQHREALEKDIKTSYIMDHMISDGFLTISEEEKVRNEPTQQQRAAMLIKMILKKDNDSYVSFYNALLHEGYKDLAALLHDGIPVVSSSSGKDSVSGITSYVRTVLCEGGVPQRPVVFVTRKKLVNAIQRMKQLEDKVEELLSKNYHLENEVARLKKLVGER

B1: processed C9/8 chimera (enzyme)
chain 1: MDEADRRLLRRCRLRLVEELQVDQLWDALLSRELFRPHMIEDIQRAGSGSRRDQARQLIIDLETRGSQALPLFISCLEDTGQDMLASFLRTNRQAAKLSKPTLENLTPVVLRPEIRKPEVLRPETPRPVDIGSGGFGSESQTLDKVYQMKSKPRGYCLIINNHNFAKAREKVPKLHSIRDRNGTHLDAGALTTTFEELHFEIKPHDDCTVEQIYEILKIYQLMDHSNMDCFICCILSHGDKGIIYGTDGQEAPIYELTSQFTGLKCPSLAGKPKVFFIQACQGDNYQKGIPVETD
chain 2: LSSPQTRYIPDEADFLLGMATVNNCVSYRNPAEGTWYIQSLCQSLRERCPRGDDILTILTEVNYEVSNKDDKKNMGKQMPQPTFTLRKKLVFPSD
- Kd: 125 nM

Reference: PMC5123071 (2016)
